Results published in article PMC11436023.

Key:
[1] = biological target: CAP255 gp140 SpyTag (HIV-1 subtype C (patient CAP255)); assay: SEC + native gel or EMSA; lectin-purified CAP255 gp140 SpyTag on HiLoad 16/600 Superdex 200 pg; fractions on Blue NativePAGE 3-12% Bis-Tris gels, Coomassie
[2] = biological target: SpyCatcher mi3 nanoparticle; assay: cryo-EM structure; CAP255 gp140 SpyTag-SpyCatcher mi3 NPs; whole NP 9.4 Å (icosahedral), masked mi3 5.4 Å, single Env trimer-SpyCatcher 17.7 Å without symmetry
[3] = biological target: SpyCatcher mi3 nanoparticle; assay: negative stain electron microscopy; NPs alone or after coupling, on glow-discharged carbon-coated grids, 2% uranyl acetate; 2D classification and ~20 Å 3D maps with icosahedral symmetry imposed
[4] = biological target: SpyCatcher mi3 nanoparticle; assay: covalent SpyTag-SpyCatcher coupling, read by SDS-PAGE; MBP SpyTag mixed with SpyCatcher mi3 NPs at 1:1 and 1:2 molar ratios, 4 °C overnight, TBS (25 mM Tris-HCl, 300 mM NaCl, pH 8.5); Coomassie-stained SDS-PAGE, band intensities quantified

Row | Substance | stoichiometry N [1] | stoichiometry N (Env trimers per NP) [2] | stoichiometry N (Env trimers per NP) [3] | coupling efficiency [4] [%] | stoichiometry N (MBP monomers per NP) [4]
1 | CAP255 gp140 SpyTag (domain or fragment) | 3 | 12 | 12 |  | 
2 | MBP SpyTag |  |  |  | 100 | 60
